We go through 3 molecules from paper PMC9814641, “Microbial rhodoquinone biosynthesis proceeds via an atypical RquA-catalyzed amino transfer from S-adenosyl-L-methionine to ubiquinone” (Communications Chemistry, 2022).

Data set [1] concerns the target T1, RquA (Rhodospirillum rubrum, UniProt Q2RPC3).
T1 construct: gene Rru_A3227
The data set is described as follows: intrinsic tryptophan fluorescence titration, one-site fit; also Michaelis-Menten kinetics (apparent Km […] with UQ3 and Mn2+). Type of data set: binding.

Data set [2] concerns the target RquA (TEV-cleaved from MBP-RquA) (R. rubrum). Nature of the data set: SEC; calibrated HiLoad 16/60 Superdex 200; TRIS (20 mM), NaCl (200 mM), TCEP (1 mM), 0.1% Brij-35, pH 8.0; mass estimated from the elution volume.
Substrate in data set [3]: COC1=C(OC)C(=O)C(C/C=C(\C)CC/C=C(\C)CCC=C(C)C)=C(C)C1=O
Nature of the data set: LC-MS enzyme assay of conversion to RQ3, Michaelis-Menten kinetics (apparent Km). It counts as biochemical, Rhodospirillum rubrum. The settings on record: Mn2+; SAM (co-substrate).

Turning to `C[S+](CC[C@H](N)C(=O)[O-])C[C@H]1O[C@@H](n2cnc3c(N)ncnc32)[C@H](O)[C@@H]1O` (stereo partly drawn) [compound 3, S-adenosyl-L-methionine], the Kd in data set [1] was 2220 ± 1020 µM. The term stoichiometry N denotes the number of molecules, sites or subunits per partner or assembly. With “RquA (TEV-cleaved from MBP-RquA) (enzyme)”, the stoichiometry N in data set [2] is 2.

B1: RquA (Rhodospirillum rubrum ATCC 11170) (protein)
chain: MTKHQGAVRPVGPEESAFPASQSFSETGPVVADPIKPLPAYLQETYTWAYLDPRNVEWLDHEIVVNAILWGNMTRLMATAFKEFEPGQEVLQPACVYGPFSRHLAERLGPEGYLEVHDVAPVQIHHTRRKVEGLPQVTLRRADAADPLDRDFDGVCCFFLLHEVPDHVKSKIVDNMLSAVRPGGKVVFVDYHRYAALHPLRPIMAFVFRTLEPFAWGLCTREISDFASDAGSFTWRKETYFGGLYQKVVAERRA
notes: MBP-RquA
In general, Km refers to the concentration of substrate that gives half-maximal velocity. B1: the Km in data set [3] was 0.155 ± 0.028 µM.
